From the Human Domainome abundance scans (Beltran et al. 2025)
± gives the uncertainty stated by the source.

B1: Homeobox protein cut-like 1, residues 548 to 629; numbered along this chain, P39880 (parent)
chain: GEEMDTAEIARQVKEQLIKHNIGQRIFGHYVLGLSQGSVSEILARPKPWNKLTVRGKEPFHKMKQFLSDEQNILALRSIQGR

Variants of: B1
Assay: abundance fitness (aPCA) (normalised: wild type 0, dead -1); higher = more abundant; growth selection in yeast, the domain comes from the species named
Settings: Homo sapiens

| Variant | abundance fitness |
| --- | --- |
| GETMDTAEIARQVKEQLIKHNIGQRIFGHYVLGLSQGSVSEILARPKPWNKLTVRGKEPFHKMKQFLSDEQNILALRSIQGR | -0.057 ± 0.036 |
| GEEMDTAEIARQVKEQLIKHNIGQRIFGHYVLGLSQGSVSEILARPKPWNKLTVRGKEPFHKMKGFLSDEQNILALRSIQGR | -0.232 ± 0.023 |
| GEEMDTAEIARQVKEQLIKHNIGQRIFGHYVLGLSQGSVSEILARPKPWNKLTVRGKEPFHKMKFFLSDEQNILALRSIQGR | -0.446 ± 0.11 |
| GEEMDTAEIARQVKEQLIKHNIGQRIFGHYVLGLSQGSVSEILARPKPWNKLTVRGKEPFHKMKQFLSDEQNILAMRSIQGR | -0.461 ± 0.054 |
| GEEMDTAEIARQVKEQLIKHNIGQRIFGHYVLGLSQGSVSEILARPKPWNKLTVRGKEPFHKMKQALSDEQNILALRSIQGR | -0.758 ± 0.048 |
| GEEMDTAEIARQVKDQLIKHNIGQRIFGHYVLGLSQGSVSEILARPKPWNKLTVRGKEPFHKMKQFLSDEQNILALRSIQGR | -0.211 ± 0.19 |
| GEEMDTAEIARQVKEQLIKHNIGQRIFGHYVLCLSQGSVSEILARPKPWNKLTVRGKEPFHKMKQFLSDEQNILALRSIQGR | -0.4 ± 0.056 |
| GEEMDTAEIARQVKEQLIKHNIGQRIFGHYVLGLSQGSVSEILARPKPWNKLTIRGKEPFHKMKQFLSDEQNILALRSIQGR | -0.001 ± 0.039 |
| GEEMDTAEIARQVKEQLIKHNIGQRIFGHYVLGLSQGSVSEILARAKPWNKLTVRGKEPFHKMKQFLSDEQNILALRSIQGR | -0.346 ± 0.03 |
| GEEMDTAEIARQVKEQLIKHNIGQRIFGHYVLGLSQGSVSEILARPKPWNKLTVRGKEPFHKMKQFLSDEQAILALRSIQGR | 0.049 ± 0.033 |
| GEEMDTAEIARQVKEQLIKHNIGQRIFGHYVLGQSQGSVSEILARPKPWNKLTVRGKEPFHKMKQFLSDEQNILALRSIQGR | -0.173 ± 0.039 |
| GEEMDTAEIARQVKEQLIKHNIGQRIFGHYVLGLIQGSVSEILARPKPWNKLTVRGKEPFHKMKQFLSDEQNILALRSIQGR | -0.308 ± 0.084 |
| GEEMDTAEIARQVKEQLIKHNIGQRIFGHYVLGLSQGSVSERLARPKPWNKLTVRGKEPFHKMKQFLSDEQNILALRSIQGR | -1 ± 0.053 |
| GEEMDTAEIARQVKEQLIKHNIGQRIFGHYVLGLSQGSVSEISARPKPWNKLTVRGKEPFHKMKQFLSDEQNILALRSIQGR | -0.865 ± 0.065 |
| GEEMDTAEIARQVKEQLIKHNIGQRIFGHYVLGLSQGSVSEILARPKPWNKLTVRGKEPFHKMKQFLSDEQNILALRSIRGR | -0.176 ± 0.028 |
| GEEMDTAEIARQVKEQLIKHNIGQRIFGHYVLGLSQGSVSEILARPKPWNKLTVRGKEPFHKMKQFLSDEQNILALRSINGR | -0.026 ± 0.059 |
| GEEMDTAEIARQVKEQLIKHNIGQRIFGHYVLGLSQGSVSEILARPKPWNKLTVRGKEPFHKMKQFLSDEQNILALRSPQGR | -0.229 ± 0.041 |

| Variant | abundance fitness |
| --- | --- |
| GEEMDTAEIARQVKEQLIKHNIGQRIFGHYVLGLSQGSVSEILARPKPWNKLTVRGKEPFHKMKQFLSDEQNILALRSEQGR | -0.058 ± 0.034 |
| GEEMDTAEIARQVKEQLIKHNIGQRIFGHYVLGLSVGSVSEILARPKPWNKLTVRGKEPFHKMKQFLSDEQNILALRSIQGR | -0.025 ± 0.027 |
| GSEMDTAEIARQVKEQLIKHNIGQRIFGHYVLGLSQGSVSEILARPKPWNKLTVRGKEPFHKMKQFLSDEQNILALRSIQGR | -0.087 ± 0.037 |
| GIEMDTAEIARQVKEQLIKHNIGQRIFGHYVLGLSQGSVSEILARPKPWNKLTVRGKEPFHKMKQFLSDEQNILALRSIQGR | -0.261 ± 0.11 |
| GEEMDTAEIARQVKEQLIKHNIGQRIFGHYVLGLSQGSVSEILARPKPWNKLTVRGKEPFHKMKQFLSDEQNILALRAIQGR | 0.042 ± 0.032 |
| GEEMDTAEIARQVKEQLIKHNIGQRIFGHYVLGLSQGSVSEILARPKPWNKLTVRGKEPFHKMKQFLSDEQNIQALRSIQGR | 0.005 ± 0.042 |
| GEEMDTAEIARQVKEQLIKHNIGQRIFGHYVLGLSQGSVSEILARPKPWNKLTVRGKEPVHKMKQFLSDEQNILALRSIQGR | -0.911 ± 0.057 |
| GEEMDTAETARQVKEQLIKHNIGQRIFGHYVLGLSQGSVSEILARPKPWNKLTVRGKEPFHKMKQFLSDEQNILALRSIQGR | -0.267 ± 0.039 |
| GEEMDTAEIARQVKEQLIKCNIGQRIFGHYVLGLSQGSVSEILARPKPWNKLTVRGKEPFHKMKQFLSDEQNILALRSIQGR | -0.466 ± 0.065 |
| GEEMDTAEIARQVKEQLIKHNIGQRIFGHYVLGLSQGSVSEILARPKPWNKLTVAGKEPFHKMKQFLSDEQNILALRSIQGR | 0.075 ± 0.026 |
| GEEMDTAEIARQVKEQLIKHNIGQRIFGHYVLGLSQGSVSEILARPKGWNKLTVRGKEPFHKMKQFLSDEQNILALRSIQGR | -0.539 ± 0.028 |
| GEEMDTAEIARQVKEQLIKHNIGQRIFGHYVLGLSQGSVSEILARPKPWAKLTVRGKEPFHKMKQFLSDEQNILALRSIQGR | -0.062 ± 0.072 |
| GEEMDTAEIARQVKEQLIKHNIGQRIFGHYVLGLSQGSVSEILARPKPWNKLTVRGKEPFHAMKQFLSDEQNILALRSIQGR | -0.201 ± 0.027 |
| GEEMDTAEIARQVKEQLIKHNIGQRIFGHYVLGLSQGSVSEILARPKPWNKLTVRGKEPFHRMKQFLSDEQNILALRSIQGR | -0.126 ± 0.024 |
| GEEMDTAEIARQVKEQLIKHNIKQRIFGHYVLGLSQGSVSEILARPKPWNKLTVRGKEPFHKMKQFLSDEQNILALRSIQGR | 0.012 ± 0.035 |
| GEEMDTAEIARQVKEQLIKHNIGQRIFGHYVLGLSQGSVSEILARPKPWNKLTVRGKEIFHKMKQFLSDEQNILALRSIQGR | 0.099 ± 0.057 |
| GEEMDTAEIARQVKEQLIKHNIGQRIFGHYVLGLSQGSVSEILARPKPWNKLTVRGKEHFHKMKQFLSDEQNILALRSIQGR | 0.025 ± 0.066 |
